Source: patent publication US5534631, “Cellular factor ILF” (Board of Regents, The University of Texas System)

Key:
[1] = biological target: T1, GST/ILF fusion (Example 3) (Homo sapiens, UniProt Q01167 SEQ:1-540); test: competition; 1-, 5-, 20-fold excess against IL-2 NFAT probe; settings: tags: N-terminal GST (pGEX-3X)
[2] = biological target: T2, glutathione S-transferase (UniProt P08515 P08515:1-218); test: EMSA; control; settings: tags: pGEX-3X (Pharmacia), chain copies: 2
[3] = biological target: T3, GST/ILF delta1 (amino-terminal deletion) (Homo sapiens, UniProt Q01167 SEQ:97-540); test: EMSA; 4 ug protein; settings: tags: N-terminal GST (pGEX-3X)
[4] = biological target: T4, beta-galactosidase/ILF fusion (Homo sapiens, UniProt Q01167 SEQ:138-372); test: competition; competes with HIV-LTR probe at 10- or 50-fold excess; settings: tags: N-terminal beta-galactosidase (lambda gt11)
[5] = biological target: T5, GST/ILF amino and carboxyl deletion, fork head retained (Homo sapiens, UniProt Q01167 SEQ:97-367); test: EMSA; construct naming (delta2/delta3) differs between legend and methods; settings: tags: N-terminal GST (pGEX-3X)
[6] = biological target: T6, GST/ILF amino, carboxyl and fork head deletion (Homo sapiens, UniProt Q01167 SEQ:97-186); test: EMSA; fork head deleted; construct naming differs between legend and methods; settings: tags: N-terminal GST (pGEX-3X)
[7] = biological target: T4, beta-galactosidase/ILF fusion; test: competition; up to 50-fold excess; settings: tags: N-terminal beta-galactosidase (lambda gt11)
Experimental: Figure 2: FIG. 2. Gel retardation analysis with β-galactosidase/ILF fusion protein. An HIV-LTR fragment extending from −310 to −255 was used in gel retardations with either β-galactosidase or β-galactosidase/ILF purified with anti-β-galactosidase sepharose chromatography. Lane 1, probe alone; lane 2, probe with 3 μg of β-galactosidase extract; lane 3, probe with 3 μg of β-galactosidase/ILF extract. Competition analysis with either a 10-fold (lanes 4, 6, 8, 10) or 50-fold (lanes 5, 7, 9, 11) molar excess of unlabeled oligonucleotides corresponding to ILF (lanes 4 and 5), NFAT (lanes 6 and 7), AP1 (lanes 8 and 9) and CREB (lanes 10 and 11) binding motifs are shown. Figure 3B: FIG. 3. Amino acid sequence of the ILF coding region. (A) A 543 amino acid open reading frame encoded by a portion of the ILF cDNA. The shaded region indicates the region of homology of ILF with the fork head and HNF-3A DNA binding domains. The circled region (GAGSSG) SEQ ID NO:12 contains homology with a nucleotide binding sequence, the boxed region (RKRRPR) SEQ ID NO:13 contains a potential nuclear localization signal, the underlined sequence (RTPLGPLSS) SEQ ID NO:14 is homologous to a region required for ubiquitin-mediated degradation, and the dotted line (NGT) indicates a potential N-glycosylation site. (B) The 3.0 kb ILF cDNA and the position of the 1629 bp open reading frame. […]

[8] = biological target: T4, beta-galactosidase/ILF fusion; test: competition; complete competition; settings: tags: N-terminal beta-galactosidase (lambda gt11)
[9] = biological target: T6, GST/ILF amino, carboxyl and fork head …; test: EMSA; stated similar with proximal site; settings: tags: N-terminal GST (pGEX-3X)
[10] = biological target: T3, GST/ILF delta1 (amino-terminal deletion); test: EMSA; stated similar binding with proximal site; settings: tags: N-terminal GST (pGEX-3X)
[11] = biological target: T5, GST/ILF amino and carboxyl deletion, …; test: EMSA; stated similar binding with proximal site; settings: tags: N-terminal GST (pGEX-3X)
[12] = biological target: T2, glutathione S-transferase; test: EMSA; control; settings: tags: pGEX-3X (Pharmacia), chain copies: 2, label: 32P (when probe)
Source text: (§1) The constructs tested included a deletion of the amino terminus of ILF, a deletion of both the amino and carboxyl termini of ILF, or a deletion of the fork head domain in addition to the amino and carboxyl termini of ILF. Oligonucleotides corresponding to the distal ILF site in the HIV-LTR, the NFAT site in the IL-2 promoter, and an HIV-LTR fragment containing the distal ILF site were used in gel retardation analysis.
(§2) Figure 5C: FIG. 5. Gel retardation analysis of glutathione S-transferase/ILF fusions. Gel retardation analysis was performed with either ILF oligonucleotides (A), a fragment extending from −310 and −255 in the HIV-LTR (B), or NFAT oligonucleotides (C) and 4 μg of each of the glutathione S-transferase/ILF fusions. Lane 0, probe alone; lane 1, glutathione S-transferase (GST) protein alone; lane 2, a deletion of both the amino and carboxyl-termini in the GST/ILF fusion (ΔILF3); lane 3, a deletion of the ILF fork head DNA binding domain in addition to the amino and carboxyl termini in the GST/ILF fusion (ΔILF2); lane 4, an amino-terminal deletion of ILF in the GST/ILF fusion (ΔILF1).

[13] = biological target: T3, GST/ILF delta1 (amino-terminal deletion); test: EMSA; 4 ug protein; settings: tags: N-terminal GST (pGEX-3X); label: 32P (when probe)
Source text: as §1, §2

[14] = biological target: T5, GST/ILF amino and carboxyl deletion, …; test: EMSA; 4 ug protein; settings: tags: N-terminal GST (pGEX-3X); label: 32P (when probe)
Source text: as §1, §2

[15] = biological target: T6, GST/ILF amino, carboxyl and fork head …; test: EMSA; fork head deleted; settings: tags: N-terminal GST (pGEX-3X); label: 32P (when probe)
Source text: as §1, §2

[16] = biological target: T1, GST/ILF fusion (Example 3); test: EMSA; self-competition observed; settings: tags: N-terminal GST (pGEX-3X); label: 32P (when probe)
Experimental: Gel retardation of ILF with the IL-2 NFAT motif. (A) Oligonucleotides corresponding to the NFAT motif in the IL-2 promoter extending from −285 to −254 were end labeled with γP^32ATP and used in gel retardation analysis alone (lane 0), with glutathione-S-transferase (lane 1), or with a glutathione-S-transferase/ILF fusion protein (lanes 2–16). The specificity of binding was tested by competition with unlabeled oligonucleotides corresponding to the NFAT motif in the IL-2 promoter (lanes 2–4), sequences spanning −283 to −256 and −223 to −195 in the HIV-LTR which comprised distal (lanes 5–7) and proximal (lanes 8–10) NFAT motifs respectively, the hepatocyte nuclear factor HNF-3A binding site extending from −107 to −92 in the transthyretin promoter (lanes 11–13), and an AP-1 binding sequence extending from −103 to −83 in the early region 3 promoter (lanes 14–16). The unlabeled oligonucleotides were present in either an equimolar (lanes 2, 5, 8, 11, and 14), 5-fold (lanes 3, 6, 9, 12, and 15) or 20-fold (lanes 4, 7, 10, 13 and 16) molar excess of the labeled oligonucleotides. (B) Sequences of NFAT motifs in the IL-2 promoter and the distal and proximal regions of the HIV-LTR are shown.
Two complexes I and II were noted; the major complex (I) was due to full-length GST/ILF while the lower complex (II) was due to GST/ILF degradation products. […]

[17] = biological target: T4, beta-galactosidase/ILF fusion; test: competition; up to 50-fold excess; settings: tags: N-terminal beta-galactosidase (lambda gt11); remark: listed apart in the source
[18] = biological target: T1, GST/ILF fusion (Example 3); test: competition; no significant competition (also SEQ 27); settings: tags: N-terminal GST (pGEX-3X)

T3 sequence (Q01167 217-660, stated change not applied): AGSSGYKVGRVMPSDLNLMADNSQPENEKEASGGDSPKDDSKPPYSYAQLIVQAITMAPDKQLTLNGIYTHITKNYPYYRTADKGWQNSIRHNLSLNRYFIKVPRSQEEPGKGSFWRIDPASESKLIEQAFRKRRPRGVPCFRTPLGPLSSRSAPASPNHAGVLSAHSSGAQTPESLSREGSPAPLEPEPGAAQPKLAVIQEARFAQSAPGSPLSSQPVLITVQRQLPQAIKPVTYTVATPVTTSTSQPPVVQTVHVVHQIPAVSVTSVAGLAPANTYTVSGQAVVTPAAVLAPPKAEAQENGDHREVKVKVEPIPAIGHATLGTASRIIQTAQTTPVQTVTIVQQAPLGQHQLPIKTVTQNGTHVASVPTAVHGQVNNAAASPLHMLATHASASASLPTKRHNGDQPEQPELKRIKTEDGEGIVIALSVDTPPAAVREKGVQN
T5 sequence (Q01167 217-487, stated change not applied): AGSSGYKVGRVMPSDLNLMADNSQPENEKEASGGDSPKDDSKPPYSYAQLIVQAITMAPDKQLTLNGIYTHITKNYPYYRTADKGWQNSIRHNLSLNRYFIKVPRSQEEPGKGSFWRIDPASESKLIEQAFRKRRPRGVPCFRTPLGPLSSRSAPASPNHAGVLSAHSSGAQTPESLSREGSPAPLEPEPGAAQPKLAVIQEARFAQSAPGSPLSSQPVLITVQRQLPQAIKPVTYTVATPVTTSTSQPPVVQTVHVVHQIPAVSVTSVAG
T1 sequence (Q01167 121-660): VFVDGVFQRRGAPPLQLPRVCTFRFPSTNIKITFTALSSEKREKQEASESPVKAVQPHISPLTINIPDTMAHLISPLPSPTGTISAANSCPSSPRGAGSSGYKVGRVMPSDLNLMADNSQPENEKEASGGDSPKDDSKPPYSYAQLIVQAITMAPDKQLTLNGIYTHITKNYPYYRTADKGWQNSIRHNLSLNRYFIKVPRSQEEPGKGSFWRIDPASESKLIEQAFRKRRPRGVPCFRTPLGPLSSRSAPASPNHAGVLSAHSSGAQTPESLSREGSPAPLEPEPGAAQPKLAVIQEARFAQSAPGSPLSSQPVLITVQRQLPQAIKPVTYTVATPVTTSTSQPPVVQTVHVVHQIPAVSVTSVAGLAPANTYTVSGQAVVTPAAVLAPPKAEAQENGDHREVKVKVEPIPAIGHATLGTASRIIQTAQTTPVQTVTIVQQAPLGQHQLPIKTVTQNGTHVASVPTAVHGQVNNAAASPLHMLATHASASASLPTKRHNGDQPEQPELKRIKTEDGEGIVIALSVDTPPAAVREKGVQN
T6 sequence (Q01167 217-306, stated change not applied): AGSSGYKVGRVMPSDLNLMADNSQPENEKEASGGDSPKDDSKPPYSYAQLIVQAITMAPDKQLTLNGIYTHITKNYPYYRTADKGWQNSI
T4 sequence (Q01167 258-492): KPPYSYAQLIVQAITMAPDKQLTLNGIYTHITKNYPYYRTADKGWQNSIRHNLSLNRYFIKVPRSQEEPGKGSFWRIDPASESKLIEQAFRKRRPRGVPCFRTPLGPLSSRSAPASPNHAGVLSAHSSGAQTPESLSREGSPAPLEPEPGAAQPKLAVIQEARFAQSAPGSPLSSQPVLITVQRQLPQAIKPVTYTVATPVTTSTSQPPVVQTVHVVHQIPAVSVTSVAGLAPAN
T2 sequence (P08515 whole entry, one chain of several): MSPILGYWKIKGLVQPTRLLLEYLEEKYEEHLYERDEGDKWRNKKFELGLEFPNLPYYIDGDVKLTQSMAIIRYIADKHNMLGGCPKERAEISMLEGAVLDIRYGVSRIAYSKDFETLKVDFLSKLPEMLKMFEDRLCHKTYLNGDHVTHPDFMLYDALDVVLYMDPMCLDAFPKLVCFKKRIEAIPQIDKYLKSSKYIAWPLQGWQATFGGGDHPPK

B1: HIV-1 distal NFAT site (Example 3) (dsDNA)
DNA 1: GAAGAGGCCAATGAAGGAGAGAACAACA
DNA 2: TGTTGTTCTCTCCTTCATTGGCCTCTTC
- binding result [1]: binds

B2: HIV-1 LTR distal ILF motif (-283 to -256) (dsDNA)
DNA 1: GAAGAGGCCAATGAAGGAGAGAACAACA
DNA 2: TGTTGTTCTCTCCTTCATTGGCCTCTTC
- binding result [2]: no binding
- binding result [3]: binds
- binding result [4]: binds
- binding result [5]: binds
- binding result [6]: no binding

B3: CREB/ATF site, somatostatin promoter (-60 to -33) (dsDNA)
DNA 1: GGTTCCTCCTTGGCTGACGTCAGAGAGAGA
DNA 2: TCTCTCTCTGACGTCAGCCAAGGAGGAACC
- binding result [7]: no binding

B4: HIV-1 proximal NFAT site (Example 3) (dsDNA)
DNA 1: GAGGACGCGGAGAAAGAAGTGTTAAGTGTG
DNA 2: CACACTTAACACTTCTTTCTCCGCGTCCTC
- binding result [1]: binds

B5: HIV-1 LTR proximal ILF motif (-223 to -195) (dsDNA)
DNA 1: GAGGACGCGGAGAAAGAAGTGTTAGTGTG
DNA 2: CACACTAACACTTCTTTCTCCGCGTCCTC
- binding result [8]: binds
- binding result [9]: no binding
- binding result [10]: binds
- binding result [11]: binds

B6: IL-2 promoter NFAT motif (-285 to -254) (dsDNA)
DNA 1: AATTGGAGGAAAAACTGTTTCATACAGAAGGCGT
DNA 2: ACGCCTTCTGTATGAAACAGTTTTTCCTCCAATT
- binding result [12]: no binding
- binding result [13]: binds
- binding result [14]: binds
- binding result [15]: no binding
- binding result [16]: binds

B7: AP1 site, adenovirus E3 promoter (-103 to -83) (dsDNA)
DNA 1: GAAGTTCAGATGACTAACTCA
DNA 2: TGAGTTAGTCATCTGAACTTC
- binding result [17]: no binding
- binding result [18]: no binding
